Assay results taken from US20220088118A1 (Bicycle, published 2022).
Numbered stars: 1 amine (or outer) side, 2 acyl side, 3 side chain; on linkers, the order of the positions; unused ones are H or OH. Bridge positions count the residues as written; N and C are the ends. Ends that are not written are not given here. TATA = O=C(CC[*:1])N1CN(C(=O)CC[*:2])CN(C(=O)CC[*:3])C1

Experiments:
[1] = molecular target: T1, human carbonic anhydrase IX (human, UniProt Q16790 38-414); assay: competition fluorescence polarisation, fluorescent ligand (SEQ ID NO: 18)-Sar6-K(FI)
[2] = molecular target: T1, human carbonic anhydrase IX; assay: cell-based or functional assay

Row | Binder | Ki [1] [nM] | Enzyme IC50 [2] [nM]
1 | ACLSHCLWVDGWVCA (linker 2-6-14 via TATA) [61-31-00-N001] | 326 | –
2 | ACHAHCLWVDGWVCA (linker 2-6-14 via TATA) [61-30-00-N001] | 103 | –
3 | ACVECWADGWVNCA (linker 2-5-13 via TATA) [61-29-00-N001] | 129 | –
4 | ACGRCTWVDGWICA (linker 2-5-13 via TATA) [61-27-00-N001] | 1610 | –
5 | ACGDCIWVDGWVCA (linker 2-5-13 via TATA) [61-25-01-N001] | 26.5 | 939
6 | ACRDCIWVDGWVCA (linker 2-5-13 via TATA) [61-25-02-N001] | 30 | –
7 | ACGLCIWVDGWVCA (linker 2-5-13 via TATA) [61-26-00-N001] | 51 | –
8 | ACVDCVWVDGWVCA (linker 2-5-13 via TATA) [61-25-03-N001] | 70.5 | –
9 | ACSSECIWVDGWVCA (linker 2-6-14 via TATA) [61-30-01-N001] | 99.5 | 1330
10 | ACTDCIWVDGWMCA (linker 2-5-13 via TATA) [61-28-00-N001] | 442 | –
11 | ACANNCIWVDGWVCA (linker 2-6-14 via TATA) [61-30-03-N001] | 158 | –
12 | ACGACTWADGWVCA (linker 2-5-13 via TATA) [61-25-00-N001] | 2280 | –
13 | ACTETCIWVDGWVCA (linker 2-6-14 via TATA) [61-30-02-N001] | 193 | –
